Results as given in US20230212305A1 (published 2023).
Each block holds one binder with its values, some of them ahead of it.

Tests used:
[1] = target: T1, cynomolgus ABCG2 (Macaca fascicularis) (UniProt Q5MB13 1-654); assay: FACS binding to 293T cells
T1 chain: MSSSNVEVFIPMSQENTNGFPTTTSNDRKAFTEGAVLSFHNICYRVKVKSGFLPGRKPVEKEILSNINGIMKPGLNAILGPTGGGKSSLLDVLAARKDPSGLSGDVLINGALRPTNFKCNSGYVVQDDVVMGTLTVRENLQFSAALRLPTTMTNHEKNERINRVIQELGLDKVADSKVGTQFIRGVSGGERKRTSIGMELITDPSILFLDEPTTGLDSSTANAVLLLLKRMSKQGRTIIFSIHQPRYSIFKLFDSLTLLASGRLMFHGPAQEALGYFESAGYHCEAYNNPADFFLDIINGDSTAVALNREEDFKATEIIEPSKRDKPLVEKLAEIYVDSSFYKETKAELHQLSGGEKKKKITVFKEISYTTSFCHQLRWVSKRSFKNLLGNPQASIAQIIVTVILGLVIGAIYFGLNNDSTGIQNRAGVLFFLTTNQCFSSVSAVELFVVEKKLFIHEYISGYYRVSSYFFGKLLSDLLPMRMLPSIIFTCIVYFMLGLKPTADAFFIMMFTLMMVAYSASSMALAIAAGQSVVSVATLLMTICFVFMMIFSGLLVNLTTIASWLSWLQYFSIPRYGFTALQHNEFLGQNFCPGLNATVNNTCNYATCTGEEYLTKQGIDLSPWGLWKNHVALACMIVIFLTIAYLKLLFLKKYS

[2] = target: T2, human ABCG2 (UniProt Q9UNQ0 1-655); assay: FACS binding to 293T cells
T2 chain: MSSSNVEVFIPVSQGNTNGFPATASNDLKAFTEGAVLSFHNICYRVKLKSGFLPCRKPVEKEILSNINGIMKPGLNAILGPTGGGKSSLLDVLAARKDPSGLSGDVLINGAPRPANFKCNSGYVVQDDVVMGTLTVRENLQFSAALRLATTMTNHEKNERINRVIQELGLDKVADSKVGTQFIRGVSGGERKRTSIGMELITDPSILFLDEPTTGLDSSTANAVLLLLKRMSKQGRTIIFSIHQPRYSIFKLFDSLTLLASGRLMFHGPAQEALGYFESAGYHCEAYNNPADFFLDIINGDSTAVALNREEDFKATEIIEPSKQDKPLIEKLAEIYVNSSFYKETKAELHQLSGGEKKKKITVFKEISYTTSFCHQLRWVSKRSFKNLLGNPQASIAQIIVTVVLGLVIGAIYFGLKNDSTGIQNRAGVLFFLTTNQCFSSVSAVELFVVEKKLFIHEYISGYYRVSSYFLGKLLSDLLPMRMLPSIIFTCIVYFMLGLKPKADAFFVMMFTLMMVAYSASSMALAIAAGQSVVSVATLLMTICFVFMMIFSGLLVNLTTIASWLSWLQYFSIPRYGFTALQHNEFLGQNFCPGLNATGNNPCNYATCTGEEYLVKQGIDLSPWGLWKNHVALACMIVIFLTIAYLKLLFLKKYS

[3] = target: T1, cynomolgus ABCG2 (Macaca fascicularis); assay: cell binding
[4] = target: T2, human ABCG2; assay: cell binding
[5] = target: T2, human ABCG2; assay: FACS binding to 293T.hG2 cells
[6] = target: T1, cynomolgus ABCG2 (Macaca fascicularis); assay: FACS binding to 293T.cG2 cells
[7] = target: T1, cynomolgus ABCG2 (Macaca fascicularis); assay: FACS binding to 293T cells
[8] = target: T2, human ABCG2; assay: FACS cell binding (MFI)

Kd [1]: 58.4 nM
Kd [2]: 8.4 nM
B1: G2.343 rat (antibody, V domains shown)
VH: SVQLKESGPGLVQPSQTLSLTCTVSGFSLTSNGVSWVRQPPGKGLEWIAAISSGGSTYYNSVLKSRLSISRDTSKSQVFLKMNSLQTEDTAIYFCTRDTYYGYNQIPFVYWGQGTLVTVSS
VL: DVVLAQTPPTLSATIGQSVSISCRSSQSLLHSSGNTYLNWLLQRPGQPPQLLIYLVSRLESRVPNRFSGSGSGTDFTLKISGVEAEDLGVYYCVQSTHAPRTFGGGTKLELK

Kd [1]: 29.9 nM
Kd [2]: 11.1 nM
B2: G2.420 rat (antibody, V domains shown)
VH: SVQLMESGPGLVQPSQTLSLTCTVSGFSLNSYNVNWVRQPPGKGLEWIAAISSGGSTYYNSVLKSRLSITRDTSKSQVFLKMNSLQTEDTAMYFCARSGYYSSYMNWGQGVMVTVSS
VL: DVVMTQTPPTLSATIGQSVSISCRSSQSLLHSTGNTYLNWLLQRPGQPPQLLIYLVSRLEYGVPNRFSGSGSGTDFTLKISGVEAEDLGVYYCAQSTHALNTFGAGTKLELK

Kd [5]: 31.2 nM
Kd [6]: 1370 nM
B8: G2_767 (antibody, V domains shown)
VH: QVQLKESGPGLVQPSQTLSLTCTVSGLSLSSNSVSWIRQPPGKGLEWMGVIWNNGGTDYNSAIKSRLSISRDTSKSQVFLKLSSLQTEDTAMYFCARGYSSYIFDYWGQGVMVTVSS
VL: DIQMTQSPPSLSASLGDKVTITCQSSQNINNYIAWYQQKPGEAPRVLIRYTSTLQSGAPSRFSGSGSWRDYSFTISNVESEDIADYYCLQYVNLWTFGGGTKLEIK

Kd [5]: 3.4 nM
Kd [6]: 2.4 nM
B9: G2.760 rat (antibody, V domains shown)
VH: EVQLVESGGGLVQPGRSMKLSCAASGFTFSKSDMAWVRQAPTKGLKWVASIRYDGGNTYYRDSVRGRFTISRDNAKSTLYLQMDSLRSEDTATYYCSTAKAAISTPSYYVLDAWGQGASVTVSS
VL: DIGMTQSPTSMSKSVGDRVTMNCKASQNVGSNVDWFQQKTGQSPKLLIYKSSNRYTGVPARFTGSGSGTDFTFTISNMQAEDLAVYYCMQSNSYPPTFGGGTKLELK

Kd [5]: 17.5 nM
Kd [6]: 107 nM
B10: G2.758 rat (antibody, V domains shown)
VH: QGTLKESGPGIVQSSHTLSLTCSFSGFSLSTYGMGVSWIRQPSGKGLEWLASVWWNGDTSNNPSLKSRLTVSKDTS
VL: DIQMTQSPPSLSASLGDKVTITCQASQNIYKYIAWYQQKPGKAPRLLIRYTSTLHFGTPSRFSGSGSGRDYSFSISNVESEDIARYYCQQYVKFPNTFGAGTILELK

Kd [7]: 15 nM
Kd [1]: 67.7 nM
Kd [2]: 4.6 nM
B11: G2.631 rat (antibody, V domains shown)
VH: EVKLLESGGGLVQSGRSLKLSCAASGFIFSRFYMAWVRQAPRKGLEWVAYISNGAGSTYYRESVKGRFIISRDNAKSTLYLQMDSLRSEDTATYYCTTVAAPWNYVMDGWGQGASVTVSS
VL: NIQITQSPSLLSASVGDRVTLSCKGSQNINNYLAWYQQKLGEAPKLLIYKTNSLHTGIPSRFSGSGSGTDYTLTISSLHSEDLATYYCYQYNNGYTFGAGTKLELK

Kd [1]: 540 nM
Kd [2]: 50.1 nM
B12: G2.629 rat (antibody, V domains shown)
VH: EVQLVESGGGLVQPGRSLKLSCAASGFIFSRFYMAWVRQAPTKGLEWVAYINTGGGTTYYRDSVKGRFTISRDNAKTTLYLQMDSLRSEDTATYYCTTLAAPWNYVMDAWGQGASVTVSS
VL: DVVMTQSPSLLSASVGDRVTLTCKGSQNINNFLAWYQQKLGEAPKLLTYKTNSLHTGIPSRFSGSGSGTDYTLTISSLHSEDLATYYCYQYNNGYTFGPGTKLELK

Kd [1]: 49.8 nM
B14: G2.318 rat (antibody, V domains shown)
VH: EVKLLESGPGLVKPSQSLSLTCSVTGYTITSGYDWSWIRKFPGNKMEWMGYISYSGWTNYNPSLRSRISISRDTSKNQFFLQLNSVTTEDTATYYCARVRGYNPFAYWGQGTLVTVSS
VL: DIVMTQSPSLLSASVGDRVTLSCKAGQNINNYLAWYQQKLGEAPKLLIYNANSLQTGIPSRFSGSGSGTDFTLTISSLQPEDVATYFCQQYNSWTTFGSGTKLEIK

Second part, the binder before the results:

B3: G2.636.hu25 (antibody, V domains shown)
VH: EVQLVESGGGLVQPGGSLRLSCAASGFTFSRFYMAWVRQAPGKGLEWVAHISHGGDTTYYRDSVKGRFTISRDNSKNTLYLQMNSLRAEDTAVYYCTTSAAPWNYVMDGWGQGTLVTVSS
VL: AIQLTQSPSSLSASVGDRVTITCKGSQNINNFLAWYQQKPGKAPKLLIYKTNSLHTGIPSRFSGSGSGTDYTLTISSLQPEDFATYYCYQYNNGYTFGQGTKLEIK
EC50 [3]: 87.4 nM
EC50 [4]: 28.5 nM

B4: G2.636.hu47 humanized (antibody, V domains shown)
VH: EVQLVESGGGLVQPGGSLRLSCAASGFTFSRFYMAWVRQAPGKGLEWVAHISHGGDTTYYRDSVKGRFTISRDNSKNTLYLQMNSLRAEDTAVYYCTTSAAPWNYVMDGWGQGATVTVSS
VL: DIQLTQSPSSLSASVGDRVTLTCKGSQNINNFLAWYQQKPGKAPKLLIYKTNSLHTGIPSRFSGSGSGTDYTLTISSLQPEDFATYYCYQYNNGYTFGQGTKLEIK
EC50 [3]: 42.6 nM
EC50 [4]: 20.4 nM

B5: G2.636.hu27 (antibody, V domains shown)
VH: EVQLVESGGGLVQPGGSLRLSCAASGFTFSRFYMAWVRQAPGKGLEWVAHISHGGDTTYYRDSVKGRFTISRDNSKNTLYLQMNSLRAEDTAVYYCTTSAAPWNYVMDGWGQGTLVTVSS
VL: DIQLTQSPSSLSASVGDRVTLTCKGSQNINNFLAWYQQKPGKAPKLLIYKTNSLHTGIPSRFSGSGSGTDYTLTISSLQPEDFATYYCYQYNNGYTFGQGTKLEIK
EC50 [3]: 38.8 nM
EC50 [4]: 23.1 nM

B6: G2.636.hu45 (antibody, V domains shown)
VH: EVQLVESGGGLVQPGGSLRLSCAASGFTFSRFYMAWVRQAPGKGLEWVAHISHGGDTTYYRDSVKGRFTISRDNSKNTLYLQMNSLRAEDTAVYYCTTSAAPWNYVMDGWGQGATVTVSS
VL: AIQLTQSPSSLSASVGDRVTITCKGSQNINNFLAWYQQKPGKAPKLLIYKTNSLHTGIPSRFSGSGSGTDYTLTISSLQPEDFATYYCYQYNNGYTFGQGTKLEIK
EC50 [3]: 65.3 nM
EC50 [4]: 18.5 nM

B7: G2.757 rat (antibody, V domains shown)
VH: QVTLKESGPGILRPSHTLSLTCSFSGFSLTTYGICVSWIRQPSGKGLEWLANICWEDSKAYNPSLKNRLTISKDTSNNQVFLRIPSVDTADSAIYYCARVFNNYPFPYWGQGTLVTVSS
VL: TQSPPSLSASLGDKVTITCQASQNINKYVAWYQQKPGKAPRLLIRYTSTLESGTPSRFSGSGSWRDYSFSISNVESEDIADYYCLQYVNLWTFGGGTKLELK
Kd [5]: 12.4 nM
Kd [6]: 73.5 nM

B13: G2.333 rat (antibody, V domains shown)
VH: EIQLQESGPGLVKPSQSLSLTCSVTGYTITSGYDWTWLRKFPGNKMEWMGYISYSGFTNYNPSLRSRISISRDTSKNQFFLQLNSVTTEDTATYYCARTRGYNPFPYWGQGTLVTVSS
VL: DIQMTQSPSLLSASVGDRVSLSCKAGRNVNNYLAWYQQKLGKPPKLLIYNSNSLQTGIPSRFSGSGSGTDFTLTISSLQPEDVATYFCQQYNSWTTFGSGTKLEIK
Kd [1]: 111 nM

B15: G2.65 mouse (antibody, V domains shown)
VH: QGQMHQSGAELVKPGASVKLSCKTSGFTFNSGYISWLKQKPRQSLEWIAWIYAGTGISNFNQKFTGKAQLTVDTSSSTAYMQLSSLTSADSAIYFCASGARKTLDFWGQGTSVTVSS
VL: DIQMTQSSSYLSVSVGGRVTITCKASDQINYWLAWYQQKPGNAPRLLISGATSLETGVPSRFSGSGSGKDYTLSITSFQTEDVATYYCQQYWTTPYTFGGGTKVEIK
EC50 [8]: 180 nM
